Test [1] concerns the target human mesothelin (MSLN) on the cell surface (human) (UniProt Q13421). Description: FACS on MiaPaCa-MSLN #2 cells, upper histogram and table.
For test [2] the target is unchanged. Description: FACS on MSLN stable cell line (#2), left panels; sheet note: 1st Ab 1 µg (1st assay), 2nd Ab anti-human Fc antibody FITC.
Test [3] shares this target. Description: FACS on MSLN stable cell line (#2), right panels; sheet note: 1st Ab 0.36 µg (2nd assay), 2nd Ab anti-human Fc antibody FITC.
Test [4] shares this target. Nature of the test: FACS on MiaPaCa-MSLN #2 cells, upper histogram and table; negative control.
Test [5] shares this target. Description: FACS on MSLN stable cell line (#2), left panels; negative control; sheet note: 1st Ab 1 µg (1st assay), 2nd Ab anti-human Fc antibody FITC.
Test [6] shares this target. Nature of the test: FACS on MSLN stable cell line (#2), right panels; negative control; sheet note: 1st Ab 0.36 µg (2nd assay), 2nd Ab anti-human Fc antibody FITC.

human mesothelin (MSLN) on the cell surface (human), sequence (Q13421 other isoform, or with tags, fused parts or gaps limits assumed): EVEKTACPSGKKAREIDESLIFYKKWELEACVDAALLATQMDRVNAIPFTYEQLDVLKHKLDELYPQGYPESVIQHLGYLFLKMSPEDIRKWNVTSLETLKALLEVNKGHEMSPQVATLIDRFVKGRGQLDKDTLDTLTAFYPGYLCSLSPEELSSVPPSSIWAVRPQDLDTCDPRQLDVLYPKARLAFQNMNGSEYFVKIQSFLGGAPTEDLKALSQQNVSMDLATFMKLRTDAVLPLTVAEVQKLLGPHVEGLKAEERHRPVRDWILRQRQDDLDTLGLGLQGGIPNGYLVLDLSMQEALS

Morab (antibody): the Mean, FL2-H in test [1] turned out to be 3190. In addition, the Mean, FL1-H in test [2] worked out at 515; in test [3] it was 263.

As for hIgG (antibody), the Mean, FL2-H in test [4] was determined as 8.6. In addition, the values for the Mean, FL1-H in test [5] and in test [6] were 3.36 and 4.81, respectively.

For the origin of these results see US20180346588A1.
